# Experimental data: patent US20110263827A1 (AbbVie / Abbott, published 2011)
# Tests used:
# EGFR [1] = molecular target: T1, EGFR (UniProt P00533 25-645, limits assumed, biotinylated); assay: direct bind ELISA, C-term VD;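 also: ELISA with antibody or DVD-Ig preparations applied to target antigen-coated plates for 1 h at room temperature, TMB colour development, absorbance read at 450 nm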
# T1 construct: ELISA antigen; construct not described
# VEGF = molecular target: T2, VEGF (UniProt P15692-4 27-191, limits assumed, biotinylated); assay: direct bind ELISA, N-term VD;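 also: antibody or DVD-Ig preparations bound to immobilized target antigen on ELISA plates, 1 h at room temperature, TMB detection read as absorbance at 450 nm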
# T2 construct: ELISA antigen
# RON = RON (UniProt Q04912 25-571, biotinylated); assay: direct bind ELISA, C-term VD;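 also: ELISA with antibody or DVD-Ig preparations applied to target antigen-coated plates for 1 h at room temperature, TMB colour development, absorbance read at 450 nm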
# EGFR [2] = molecular target: T1, EGFR; assay: direct bind ELISA, N-term VD;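 also: antibody or DVD-Ig preparations bound to immobilized target antigen on ELISA plates, 1 h at room temperature, TMB detection read as absorbance at 450 nm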
Binder,EC50 (EGFR [1]),EC50 (VEGF),EC50 (RON),EC50 (EGFR [2])
"DVD840 (bispecific antibody, DVD-Ig; HC S, LC L; variable parts only) VH: EVQLVESGGGLVQPGGSLRLSCAASGYTFTNYGMNWVRQAPGKGLEWVGWINTYTGEPTYAADFKRRFTFSLDTSKSTAYLQMNSLRAEDTAVYYCAKYPHYYGSSHWYFDVWGQGTLVTVSSASTKGPQVQLQESGPGLVKPSQTLSLTCTVSGYSISSDFAWNWIRQPPGKGLEWMGYISYSGNTRYQPSLKSRITISRDTSKNQFFLKLNSVTAADTATYYCVTAGRGFPYWGQGTLVTVSS VL: DIQMTQSPSSLSASVGDRVTITCSASQDISNYLNWYQQKPGKAPKVLIYFTSSLHSGVPSRFSGSGSGTDFTLTISSLQPEDFATYYCQQYSTVPWTFGQGTKVEIKRTVAAPSVFIFPPDIQMTQSPSSMSVSVGDRVTITCHSSQDINSNIGWLQQKPGKSFKGLIYHGTNLDDGVPSRFSGSGSGTDYTLTISSLQPEDFATYYCVQYAQFPWTFGGGTKLEIKR",69.8 nM,0.18 nM,–,–
"DVD338 (bispecific antibody, DVD-Ig; HC S, LC S; variable parts only) VH: EVQLVESGGGLVQPGGSLRLSCAASGYTFTNYGMNWVRQAPGKGLEWVGWINTYTGEPTYAADFKRRFTFSLDTSKSTAYLQMNSLRAEDTAVYYCAKYPHYYGSSHWYFDVWGQGTLVTVSSASTKGPQVQLQESGPGLVKPSQTLSLTCTVSGYSISSDFAWNWIRQPPGKGLEWMGYISYSGNTRYQPSLKSRITISRDTSKNQFFLKLNSVTAADTATYYCVTAGRGFPYWGQGTLVTVSS VL: DIQMTQSPSSLSASVGDRVTITCSASQDISNYLNWYQQKPGKAPKVLIYFTSSLHSGVPSRFSGSGSGTDFTLTISSLQPEDFATYYCQQYSTVPWTFGQGTKVEIKRTVAAPDIQMTQSPSSMSVSVGDRVTITCHSSQDINSNIGWLQQKPGKSFKGLIYHGTNLDDGVPSRFSGSGSGTDYTLTISSLQPEDFATYYCVQYAQFPWTFGGGTKLEIKR",206 nM,0.24 nM,–,–
"DVD852 (bispecific antibody, DVD-Ig; HC S, LC L; variable parts only) VH: EVQLVESGGGLVQPGGSLRLSCAASGFTINASWIHWVRQAPGKGLEWVGAIYPYSGYTNYADSVKGRFTISADTSKNTAYLQMNSLRAEDTAVYYCARWGHSTSPWAMDYWGQGTLVTVSSASTKGPQVQLQESGPGLVKPSQTLSLTCTVSGYSISSDFAWNWIRQPPGKGLEWMGYISYSGNTRYQPSLKSRITISRDTSKNQFFLKLNSVTAADTATYYCVTAGRGFPYWGQGTLVTVSS VL: DIQMTQSPSSLSASVGDRVTITCRASQVIRRSLAWYQQKPGKAPKLLIYAASNLASGVPSRFSGSGSGTDFTLTISSLQPEDFATYYCQQSNTSPLTFGQGTKVEIKRTVAAPSVFIFPPDIQMTQSPSSMSVSVGDRVTITCHSSQDINSNIGWLQQKPGKSFKGLIYHGTNLDDGVPSRFSGSGSGTDYTLTISSLQPEDFATYYCVQYAQFPWTFGGGTKLEIKR",68.1 nM,0.78 nM,–,–
"DVD760 (bispecific antibody, DVD-Ig; HC S, LC S; variable parts only) VH: EVQLVESGGGLVQPGGSLRLSCAASGFTINASWIHWVRQAPGKGLEWVGAIYPYSGYTNYADSVKGRFTISADTSKNTAYLQMNSLRAEDTAVYYCARWGHSTSPWAMDYWGQGTLVTVSSASTKGPQVQLQESGPGLVKPSQTLSLTCTVSGYSISSDFAWNWIRQPPGKGLEWMGYISYSGNTRYQPSLKSRITISRDTSKNQFFLKLNSVTAADTATYYCVTAGRGFPYWGQGTLVTVSS VL: DIQMTQSPSSLSASVGDRVTITCRASQVIRRSLAWYQQKPGKAPKLLIYAASNLASGVPSRFSGSGSGTDFTLTISSLQPEDFATYYCQQSNTSPLTFGQGTKVEIKRTVAAPDIQMTQSPSSMSVSVGDRVTITCHSSQDINSNIGWLQQKPGKSFKGLIYHGTNLDDGVPSRFSGSGSGTDYTLTISSLQPEDFATYYCVQYAQFPWTFGGGTKLEIKR",328 nM,0.77 nM,–,–
"DVD767 (bispecific antibody, DVD-Ig; HC L, LC L; variable parts only) VH: QVQLQESGPGLVKPSQTLSLTCTVSGYSISSDFAWNWIRQPPGKGLEWMGYISYSGNTRYQPSLKSRITISRDTSKNQFFLKLNSVTAADTATYYCVTAGRGFPYWGQGTLVTVSSASTKGPSVFPLAPEVQLVQSGGGLVKPGGSLRLSCAASGFTFSSYAMHWVRQAPGKGLEWVAVISYDGSNKYYADSVKGRFTISRDNSKNTLYLQMNSLRAEDTAVYYCARFSGWPNNYYYYGMDVWGQGTTVTVSS VL: DIQMTQSPSSMSVSVGDRVTITCHSSQDINSNIGWLQQKPGKSFKGLIYHGTNLDDGVPSRFSGSGSGTDYTLTISSLQPEDFATYYCVQYAQFPWTFGGGTKLEIKRTVAAPSVFIFPPDVVMTQSPLSLPVTPGEPASISCRSSQSLLHSNGFNYVDWYLQKPGQSPHLLIYFGSYRASGVPDRFSGSGSGTDFTLKISRVEAEDVGVYYCMQALQTPPWTFGQGTKVEIRR",–,–,0.64 nM,5.97 nM
"DVD325 (bispecific antibody, DVD-Ig; HC S, LC S; variable parts only) VH: QVQLQESGPGLVKPSQTLSLTCTVSGYSISSDFAWNWIRQPPGKGLEWMGYISYSGNTRYQPSLKSRITISRDTSKNQFFLKLNSVTAADTATYYCVTAGRGFPYWGQGTLVTVSSASTKGPEVQLVQSGGGLVKPGGSLRLSCAASGFTFSSYAMHWVRQAPGKGLEWVAVISYDGSNKYYADSVKGRFTISRDNSKNTLYLQMNSLRAEDTAVYYCARFSGWPNNYYYYGMDVWGQGTTVTVSS VL: DIQMTQSPSSMSVSVGDRVTITCHSSQDINSNIGWLQQKPGKSFKGLIYHGTNLDDGVPSRFSGSGSGTDYTLTISSLQPEDFATYYCVQYAQFPWTFGGGTKLEIKRTVAAPDVVMTQSPLSLPVTPGEPASISCRSSQSLLHSNGFNYVDWYLQKPGQSPHLLIYFGSYRASGVPDRFSGSGSGTDFTLKISRVEAEDVGVYYCMQALQTPPWTFGQGTKVEIRR",–,–,25 nM,5.96 nM
"DVD850 (bispecific antibody, DVD-Ig; HC S, LC L; variable parts only) VH: EVQLVESGGGLVQPGGSLRLSCAASGFTISDYWIHWVRQAPGKGLEWVAGITPAGGYTYYADSVKGRFTISADTSKNTAYLQMNSLRAEDTAVYYCARFVFFLPYAMDYWGQGTLVTVSSASTKGPQVQLQESGPGLVKPSQTLSLTCTVSGYSISSDFAWNWIRQPPGKGLEWMGYISYSGNTRYQPSLKSRITISRDTSKNQFFLKLNSVTAADTATYYCVTAGRGFPYWGQGTLVTVSS VL: DIQMTQSPSSLSASVGDRVTITCRASQDVSTAVAWYQQKPGKAPKLLIYSASFLYSGVPSRFSGSGSGTDFTLTISSLQPEDFATYYCQQSYTTPPTFGQGTKVEIKRTVAAPSVFIFPPDIQMTQSPSSMSVSVGDRVTITCHSSQDINSNIGWLQQKPGKSFKGLIYHGTNLDDGVPSRFSGSGSGTDYTLTISSLQPEDFATYYCVQYAQFPWTFGGGTKLEIKR",71.8 nM,10.2 nM,–,–
"DVD758 (bispecific antibody, DVD-Ig; HC S, LC S; variable parts only) VH: EVQLVESGGGLVQPGGSLRLSCAASGFTISDYWIHWVRQAPGKGLEWVAGITPAGGYTYYADSVKGRFTISADTSKNTAYLQMNSLRAEDTAVYYCARFVFFLPYAMDYWGQGTLVTVSSASTKGPQVQLQESGPGLVKPSQTLSLTCTVSGYSISSDFAWNWIRQPPGKGLEWMGYISYSGNTRYQPSLKSRITISRDTSKNQFFLKLNSVTAADTATYYCVTAGRGFPYWGQGTLVTVSS VL: DIQMTQSPSSLSASVGDRVTITCRASQDVSTAVAWYQQKPGKAPKLLIYSASFLYSGVPSRFSGSGSGTDFTLTISSLQPEDFATYYCQQSYTTPPTFGQGTKVEIKRTVAAPDIQMTQSPSSMSVSVGDRVTITCHSSQDINSNIGWLQQKPGKSFKGLIYHGTNLDDGVPSRFSGSGSGTDYTLTISSLQPEDFATYYCVQYAQFPWTFGGGTKLEIKR",562 nM,5.37 nM,–,–
